Results on one substance are retold here after PMC4266991.

This assay has as its target SUFU (UniProt Q9UMX1). As to the kind of experiment: co-immunoprecipitation, immunoblot. The note with it: reference: wild-type GLI2, CCL21; sites S149. (Immunoblotting shows a protein as a band on a membrane.)

For the substance “GLI2 (from UniProt P10070) GLI2 S149A, CCL21”, the “binding against the reference” value is recorded as “stronger”.
